This assay concerns the target Claudin 18.2 (UniProt P56856). In words: flow cytometry (FACS), cells not given. (In general: Flow cytometry measures light scatter and fluorescence of single cells or particles in a stream.)

B1: RGCLN18.2 antibody (antibody, human IgG1, kappa, V domains shown)
VH: QVQLVQSGAEVKKPGASVKVSCKASGYAFTNYLIEWVRQAPGQGLEWMGLINPGSGGTNYNEKFKGRVTMTRDTSTSTVYMELSSLRSEDTAVYYCARGGYYGNSFAYWGQGTLVTVSS
VL: DIVMTQSPLSLPVTPGEPASISCKSSQSLLNSGNQKNYLTWYLQKPGQSPQLLIYWASTRESGVPDRFSGSGSGTDFTLKISRVEAEDVGVYYCQNAYYYPYTFGGGTKVEIKR
The EC50 is the midpoint of the concentration-response curve. On to B1, for which the EC50 was found to be 0.166 µg/mL.

The values are drawn from patent publication US20230272109A1.
